Experimental data as given in the Human Domainome abundance scans (Beltran et al. 2025).

B1: Protein maelstrom homolog, residues 3 to 71; numbered along this chain, Q96JY0 (parent)
chain: NRKASRNAYYFFVQEKIPELRRRGLPVARVADAIPYCSSDWALLREEEKEKYAEMAREWRAAQGKDPGP

Variants of: B1
Experiment: abundance fitness (aPCA) (normalised: wild type 0, dead -1); higher = more abundant; growth selection in yeast, the domain comes from the species named
Conditions: Homo sapiens

Abundance fitness of substitutions, site by site:
G24: D -0.311, A -0.398, S -0.773
L44: V -0.156, Q -0.168, E -0.421, S -0.205, R -0.802, T -0.227, C -0.343, P -0.751, K -0.568, M -0.38, D -0.553, Y -1.09, I -0.482, F -0.443, H -1, G -0.864, A -0.254
P26: R -0.431
S39: D 0.07, A -0.058, E -0.073, Y 0.041, L -0.137, V -0.164, G 0.13, M 0.129, T 0.132, F -0.016, C -0.174, H 0.109, Q 0, W 0.022, P 0.093
R29: N 0.105, L -0.032, K 0.178, P -1.09, V 0.049, I 0.139, S 0.221, Y -0.101, G 0.052, D 0.148, C 0.118, E 0.275, Q 0.041, M -0.09, H -0.113, W -0.47, F -0.478
K51: P -0.453, R -0.378
R22: C -0.791, V -0.738, L -0.11, W -0.557, H -0.036, M -0.261, K 0.162, D -0.079, Y -0.583, N -0.154, T -0.242, G -0.14, A 0.006, S -0.046, I -0.732, P -0.763
I34: Y -0.064, C -0.203, H -0.307, E -0.113, V -0.137, A -0.133, Q -0.25, N -0.06, D 0.113, G -0.198, T -0.19, S -0.229, L -0.17, R -0.148, F 0.091, M 0.069, K 0.406, W -0.04
D40: Y -0.48, N -0.007, G -0.856, V -0.036
D32: W -1.07, G -0.794, C -0.735, R -0.596, H -0.535, V -0.952, A -0.421, L -1.05, Q -0.616, S -0.817, E -0.055, F -0.956, M -0.835, Y -1.09, T -0.257, P -0.959, K -0.869
A28: M -0.319, S -0.324
W41: L -0.941, E -0.813, F -0.284, A -0.553, R -0.572, M -0.886, H -1.1, Q -1.1, P -0.572, Y -0.394, V -0.682, N -0.706, T -0.682, G -0.784, I -0.968, S -0.888, K -0.622
A42: R -0.059, W -0.236, I -0.234, D 0.015, Y -0.101, C -0.177, S 0, H -0.03, N 0.157, M -0.083, G 0.058, P -0.326, E 0.005, Q -0.147, L -0.082, K 0.016, F -0.081
R21: G 0.058, E -0.496, L -0.024
S38: R 0.171, L -0.132, M -0.154, V 0.073, Q 0.155, C -0.337, F -0.223, G 0.193, Y -0.06
A53: C 0.043, T -0.15, K -0.226, W -0.097, M -0.322, D -0.082, N -0.144, R 0.035, P -0.589, G -0.106, Y 0.265, E 0.13, S 0.082, H 0.037, I -0.263, V -0.006, Q -0.194
V30: I -0.652, G -0.607, D -0.518, C -0.174, A -0.286, M -0.164, N -0.559, Q -0.567, F -0.226, W -0.225, S -0.238, Y -0.09, R -0.614, H -0.17, P 0.113, E -0.272, K -0.514
E50: D -0.232
L20: P -0.989, T -0.62, M -0.334, N -0.642, W -0.673, Q -0.797, V -0.677, S -0.844, R -0.959
C37: G -0.557, Y -0.741, I -0.229, L -0.244, A -0.19, S -0.561, T -0.434, E -0.636, M -0.291, F -0.55, R -0.731, V -0.137, Q -0.636, K -0.719
A33: Y -0.713, V -0.541, E -0.725, G -0.098, F -0.808, H -0.279, S -0.588, D -0.62, Q -1.05, L -0.47, K -0.714, P -0.654, T -0.619, C -0.599, M -0.707, W -0.665, R -0.83
L43: G 0.064, F -0.473, M -0.098, K -0.02, V 0.006, A 0.106, N 0.252, S 0.094, E 0.102, R 0.158, C -0.176, W -0.287, I -0.16, Q 0.151, Y 0.086, D 0.277, P -0.477, T -0.108, H 0.078
L25: F -0.229
R23: H -0.467
V27: R -0.742, P -0.73, K -0.744, G -0.594, E -0.831, N -0.02, F -0.159, I -0.319, T -0.235, L -0.329, C -0.026, M -0.511, S -0.104, W -0.584, Q -1.08, D -0.738
P35: F -0.862, H 0.058, I -0.524, Y -1.07, E -0.289, K 0.049, G -0.224, S -0.628, D -0.181, A -0.435, M -0.18, W -0.756, N -0.266, T -0.554, V -0.78, L -0.713, Q -0.451
A31: K 0.161, L -0.291, Q -0.21, S -0.047, R -0.06, G -0.099, W -0.286, V -0.1, E 0.131, Y -0.178, I -0.603, P -0.019, C 0.085
R45: I -0.431, Y -0.428, P 0.147, K -0.023, H -0.072, D -0.219, F -0.502, E -0.003, G -0.111, L -0.114, A -0.001, Q 0.027, M -0.057, W -0.511, N 0.108, C 0.016, V -0.151
E46: L -0.139, H -0.101, P 0.066, D -0.266, Y -0.339, N -0.09, V -0.38, I -0.315, A -0.23, C -0.046, M -0.134, G -0.031, K 0.012, T -0.188, F -0.215, R -0.14
E48: D 0.06
